{"source": "patent US20230227547A1", "about": "(IPROGEN BIOTECH, published 2023)", "key": {"[1]": {"biological_target": "T1, sodium-dependent phosphate transport protein 2B (NaPi2b) (human, UniProt O95436 1-690)", "T1 construct": "whole, on cells", "T1 sequence (looked up)": "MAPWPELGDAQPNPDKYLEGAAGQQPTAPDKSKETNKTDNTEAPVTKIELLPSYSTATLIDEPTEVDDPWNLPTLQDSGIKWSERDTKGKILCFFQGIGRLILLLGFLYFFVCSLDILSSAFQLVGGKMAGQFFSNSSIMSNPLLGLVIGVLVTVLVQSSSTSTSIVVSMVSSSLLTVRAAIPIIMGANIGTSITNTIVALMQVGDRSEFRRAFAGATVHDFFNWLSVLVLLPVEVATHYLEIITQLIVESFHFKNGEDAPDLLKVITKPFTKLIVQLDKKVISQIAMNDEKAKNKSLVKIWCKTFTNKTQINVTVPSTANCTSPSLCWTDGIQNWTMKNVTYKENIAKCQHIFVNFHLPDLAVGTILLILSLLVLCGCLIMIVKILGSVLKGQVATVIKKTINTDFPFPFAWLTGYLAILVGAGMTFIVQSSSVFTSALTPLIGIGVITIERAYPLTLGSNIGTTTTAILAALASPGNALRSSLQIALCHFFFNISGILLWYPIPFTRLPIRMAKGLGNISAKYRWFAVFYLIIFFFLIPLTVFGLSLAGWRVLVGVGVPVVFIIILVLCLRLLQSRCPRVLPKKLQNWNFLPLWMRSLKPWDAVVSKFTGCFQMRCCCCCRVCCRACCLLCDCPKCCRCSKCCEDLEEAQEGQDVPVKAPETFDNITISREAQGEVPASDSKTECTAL", "assay": "fluorescence microscopy, goat anti-human IgG-AlexaFluor488, OVCAR3 cells, 100 nM mAb, 3 h", "description": "(§1) Delivery assay. […] The permeabilized cells were then incubated with 5% (v/v) FBS, 0.05% (v/v) Tween-20 in PBS at 37 degree Celsius incubator for 30 minutes. […] After incubation, the labelled cells were washed twice with PBS, and stored in storage buffer [5% (v/v) FBS in PBS] at 4 degree Celsius until fluorescence microscope imaging."}, "[2]": {"biological_target": "T2, Epithelial cell adhesion molecule (EpCAM) (human, UniProt P16422 24-314)", "T2 construct": "whole, on cells", "T2 sequence (looked up)": "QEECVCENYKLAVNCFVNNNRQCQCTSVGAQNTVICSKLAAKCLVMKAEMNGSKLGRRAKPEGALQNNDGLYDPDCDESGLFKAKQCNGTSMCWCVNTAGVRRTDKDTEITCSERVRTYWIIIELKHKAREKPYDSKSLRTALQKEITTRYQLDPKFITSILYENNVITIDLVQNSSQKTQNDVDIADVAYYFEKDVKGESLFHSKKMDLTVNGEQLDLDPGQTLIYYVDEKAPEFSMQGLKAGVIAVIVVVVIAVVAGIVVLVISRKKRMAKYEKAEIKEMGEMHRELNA", "assay": "fluorescence microscopy, goat anti-human IgG-AlexaFluor488, LnCap cells, 100 nM mAb, 3 h", "description": "as §1"}, "[3]": {"biological_target": "T2, Epithelial cell adhesion molecule …", "assay": "fluorescence microscopy, goat anti-human IgG-AlexaFluor488, LnCap cells, 100 nM mAb-LL37, 3 h", "description": "as §1"}, "[4]": {"biological_target": "T1, sodium-dependent phosphate transport …", "assay": "fluorescence microscopy, goat anti-human IgG-AlexaFluor488, OVCAR3 cells, 100 nM mAb-LL37, 3 h", "description": "as §1"}, "CD33A": {"biological_target": "T3, CD33A (human, UniProt P20138 18-364)", "T3 construct": "whole, on cells", "T3 sequence (P20138 18-364)": "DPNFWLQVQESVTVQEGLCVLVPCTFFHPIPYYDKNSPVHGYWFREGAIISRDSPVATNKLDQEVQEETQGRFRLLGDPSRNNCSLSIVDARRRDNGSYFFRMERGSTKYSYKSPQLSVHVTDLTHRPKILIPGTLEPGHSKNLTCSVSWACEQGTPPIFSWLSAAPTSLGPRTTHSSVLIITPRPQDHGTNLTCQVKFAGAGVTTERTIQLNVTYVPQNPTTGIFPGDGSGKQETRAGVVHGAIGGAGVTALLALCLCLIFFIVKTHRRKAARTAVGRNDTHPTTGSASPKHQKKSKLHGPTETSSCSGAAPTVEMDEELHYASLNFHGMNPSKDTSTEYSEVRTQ", "assay": "summary sentence of Example 3"}, "folate receptor": {"biological_target": "T4, folate receptor (human, UniProt P15328 25-234)", "T4 construct": "whole, on cells; also called folate receptor alpha", "T4 sequence (P15328 25-234)": "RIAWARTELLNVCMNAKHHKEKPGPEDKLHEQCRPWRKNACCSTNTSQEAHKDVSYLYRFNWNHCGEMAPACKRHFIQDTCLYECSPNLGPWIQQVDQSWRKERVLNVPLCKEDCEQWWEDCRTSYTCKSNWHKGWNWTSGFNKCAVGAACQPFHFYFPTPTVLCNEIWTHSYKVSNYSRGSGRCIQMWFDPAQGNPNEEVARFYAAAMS", "assay": "summary sentence of Example 3"}}, "data": [{"binder": "Anti-NaPi2b mAb, Lifastuzumab (antibody, human IgG1, kappa) heavy: not shown light: DIQMTQSPSSLSASVGDRVTITCRSSETLVHSSGNTYLEWYQQKPGKAPKLLIYRVSNRFSGVPSRFSGSGSGTDFTLTISSLQPEDFATYYCFQGSFNPLTFGQGTKVEIKRTVAAPSVFIFPPSDEQLKSGTASVVCLLNNFYPREAKVQWKVDNALQSGNSQESVTEQDSKDSTYSLSSTLTLSKADYEKHKVYACEVTHQGLSSPVTKSFNRGECGGGGSLPMTGGHG", "values": [{"measurement": "binding result", "setting": "[1]", "result": "binds"}]}, {"binder": "Anti-EpCAM mAb, Citatuzumab (antibody, human IgG1, kappa) heavy: not shown light: DIQMTQSPSSLSASVGDRVTITCRSTKSLLHSNGITYLYWYQQKPGKAPKLLIYQMSNLASGVPSRFSSSGSGTDFTLTISSLQPEDFATYYCAQNLEIPRTFGQGTKVEIKRTVAAPSVFIFPPSDEQLKSGTASVVCLLNNFYPREAKVQWKVDNALQSGNSQESVTEQDSKDSTYSLSSTLTLSKADYEKHKVYACEVTHQGLSSPVTKSFNRGECGGGGSLPMTGGHG", "values": [{"measurement": "binding result", "setting": "[2]", "result": "binds"}]}, {"binder": "Citatuzumab-LL37 (LL37-conjugated anti-EpCAM antibody citatuzumab) (antibody, human IgG1, kappa) heavy: not shown light: DIQMTQSPSSLSASVGDRVTITCRSTKSLLHSNGITYLYWYQQKPGKAPKLLIYQMSNLASGVPSRFSSSGSGTDFTLTISSLQPEDFATYYCAQNLEIPRTFGQGTKVEIKRTVAAPSVFIFPPSDEQLKSGTASVVCLLNNFYPREAKVQWKVDNALQSGNSQESVTEQDSKDSTYSLSSTLTLSKADYEKHKVYACEVTHQGLSSPVTKSFNRGECGGGGSLPMTGGLLGDFFRKSKEKIGKEFKRIVQRIKDFLRNLVPRTES", "values": [{"measurement": "binding result", "setting": "[3]", "result": "binds"}]}, {"binder": "Lifastuzumab-LL37 (LL37-linked anti-NaPi2b mAb) (antibody, human IgG1, kappa) heavy: not shown light: DIQMTQSPSSLSASVGDRVTITCRSSETLVHSSGNTYLEWYQQKPGKAPKLLIYRVSNRFSGVPSRFSGSGSGTDFTLTISSLQPEDFATYYCFQGSFNPLTFGQGTKVEIKRTVAAPSVFIFPPSDEQLKSGTASVVCLLNNFYPREAKVQWKVDNALQSGNSQESVTEQDSKDSTYSLSSTLTLSKADYEKHKVYACEVTHQGLSSPVTKSFNRGECGGGGSLPMTGGLLGDFFRKSKEKIGKEFKRIVQRIKDFLRNLVPRTES", "values": [{"measurement": "binding result", "setting": "[4]", "result": "binds"}]}, {"binder": "Anti-CD33A mAb (Vadastuximab)-LL37 (antibody, human IgG1, kappa) heavy: not shown light: DIQMTQSPSSLSASVGDRVTINCKASQDINSYLSWFQQKPGKAPKTLIYRANRLVDGVPSRFSGSGSGQDYTLTISSLQPEDFATYYCLQYDEFPLTFGGGTKVEIKRTVAAPSVFIFPPSDEQLKSGTASVVCLLNNFYPREAKVQWKVDNALQSGNSQESVTEQDSKDSTYSLSSTLTLSKADYEKHKVYACEVTHQGLSSPVTKSFNRGECGGGGSLPMTGGLLGDFFRKSKEKIGKEFKRIVQRIKDFLRNLVPRTES", "values": [{"measurement": "binding result", "setting": "CD33A", "result": "binds"}]}, {"binder": "Anti-folate receptor mAb-LL37 (Mirvetuximab-LL37) (antibody, human IgG1, kappa, also called anti-folate receptor mAb (mirvetuximab) with LL37 conjugation) heavy: not shown light: DIVLTQSPLSLAVSLGQPAIISCKASQSVSFAGTSLMHWYHQKPGQQPRLLIYRASNLEAGVPDRFSGSGSKTDFTLTISPVEAEDAATYYCQQSREYPYTFGGGTKLEIKRTVAAPSVFIFPPSDEQLKSGTASVVCLLNNFYPREAKVQWKVDNALQSGNSQESVTEQDSKDSTYSLSSTLTLSKADYEKHKVYACEVTHQGLSSPVTKSFNRGECGGGGSLPETGGLLGDFFRKSKEKIGKEFKRIVQRIKDFLRNLVPRTES", "values": [{"measurement": "binding result", "setting": "folate receptor", "result": "binds"}]}]}
